Entries after “also recorded” stand apart in the source; their conditions may differ. Like-named read-outs stand apart in the source and are kept apart here.
Key:
[1] = assay type: physicochemical
Description: Analytical liquid chromatography (LC) was performed using a HPLC system from Beckman (Fullerton, Calif., USA) consisting of a 126 pump, a 166 UV detector and a radiation detector coupled in series. Data acquisition and handling was performed using the Beckman System Gold Nouveau Chromatography Software Package. The column used was a Vydac RP 300 Å HPLC column (Vydac, USA) with the dimensions 150 mm×4.6 mm, 5 μm particle size. The applied gradient elution had the following parameters: A=10 mM TFA; B=70% acetonitrile (MeCN), 30% H2O, 10 mM TFA with UV-detection at 220 nm; flow was 1.2 mL/min; 0-2 min isocratic 20% B, 20-90% B linear gradient 8 min, 90-20% B linear gradient 2 min The quantity of ^68Ga-DOTA-hEGF and radio-impurities retained on the column could be obtained by measuring the activity of the sample injected on the column and the fractions collected from the outlet with a crystal scintillation counter. The overall loss on the system was 10%. The measured activity of the fractions of ^68Ga-DOTA-hEGF and hydrophilic radio-impurities were in agreement with the respective values obtained from the HPLC chromatograms. […]
The microwave-accelerated labeling of the conjugates (Scheme 1) was performed using a non-concentrated or a pre-concentrated generator ^68Ga-eluate. […] Pre-concentration of eluate allowed to obtain specific radioactivity of 28 MBq/nmol. […]

A431 cells [2] = assay: Cellular internalization by acid wash, A431 cells; assay type: cell-based, human
Description: (§1) The human squamous carcinoma cell line A431 (ATCC, CLR 1555, Rocksville, Md., USA) and the malignant glioma cell line U343MGaC12:6 (Westermark B, Magnusson A, Heldin C H. Effect of epidermal growth factor on membrane motility and cell locomotion in cultures of human clonal glioma cells. J Neurosci Res. 1982; 8(2-3): 491-507) (from now on denoted U343) were used in all cell experiments. This A431 cell line is reported to express approximately 2×10^6 EGFR per cell, and the U343 cell line express approximately 5.5×10^5 EGFR per cell. […]
(§2) Instead of trypsinising the cells, treatment with 0.5 ml ice-cold 0.1 M glycin-HCl buffer, pH 2.5 for 6 min at 0° C. was used to extract the membrane bound fraction of the conjugate. […] The remaining radioactivity, considered to be internalized radioactivity, was collected by treatment with 0.5 ml 1 M NaOH solution at 37° C. for about 60 min. […] The collected fractions were measured in an automated gamma counter.
(§3) In this study, the degree of internalization was estimated by acid wash. Radioactivity, which was removed from cells by an acidic buffer was considered as membrane-bound, and the rest as internalized. […] More than 50% of the radioactivity was internalized at 30 min after the start of incubation in the case of glioma U343 cells.

U343 cells [3] = assay: Cellular internalization by acid wash, U343 cells; assay type: cell-based, human
Description: as §1, §2, §3

A431 cells [4] = assay: Cellular retention of radioactivity after interrupted incubation, A431 cells; assay type: cell-based, human; conditions: 4 hours after interrupted incubation
Description: as §1, with “cell. The cells were cultured in Ham's F10 medium (Biochrom Kg), supplemented with 10% fetal calf serum (Sigma), L-glutamine (2 mM) and PEST (penicillin 100 IU/ml and streptomycin 100 μg/ml) both from Biochrom Kg. During cell culture and cell experiments (unless otherwise stated) cells were grown at 37° C. in incubators with humidified air, equilibrated with 5% CO2.” for “cell.”
(§4) After the incubation, the cells were washed thoroughly to eliminate unbound conjugate, and the incubation was then continued in fresh cell culture medium. After 0.5-4 h, the cells were trypsinized, counted and measured for radioactivity, as described above.
(§5) An initial drop of radioactivity, which was most likely due to dissociation of membrane-bound conjugates, was followed by a relatively constant amount of cell-bound ^68Ga.

U343 cells [5] = assay: Cellular retention of radioactivity after interrupted incubation, U343 cells; assay type: cell-based, human; conditions: 4 hours after interrupted incubation
Description: as §1, with “cell. The cells were cultured in Ham's F10 medium (Biochrom Kg), supplemented with 10% fetal calf serum (Sigma), L-glutamine (2 mM) and PEST (penicillin 100 IU/ml and streptomycin 100 μg/ml) both from Biochrom Kg. During cell culture and cell experiments (unless otherwise stated) cells were grown at 37° C. in incubators with humidified air, equilibrated with 5% CO2.” for “cell.”
as §4, §5

A431 tumor xenografts [6] = system: A431 tumor xenografts; set-up: species or system Balb/c nu/nu mice; conditions: mouse, in vivo, iv, 0.5 h
Description: (§6) The in vivo studies were carried out in adult female Balb/c nu/nu mice (21-25 g) (Möllegård, Denmark) with tumor xenografts. All animals were handled according to the guidelines by the Swedish Animal Welfare Agency, and the experiments were approved by the local Ethics Committee for Animal Research. The mice were injected subcutaneously with A431 tumor cells (approximately 7 million cells per tumor in 100 μl cell culture medium) in both front legs. The tumors were allowed to grow for 12-13 days before the experiments were performed, and had then reached a weight of 0.1-0.8 g.
In order to estimate an influence of amount injected conjugate on uptake in tumors and normal tissues, a biodistribution study was performed. […] The mice were anesthetised by an intraperitoneal injection of a mixture of Rompun (1 mg/ml) and Ketalar (10 mg/ml), 0.2 ml per 10 g of animal weight, and killed by heart puncture. In addition to the tumors, blood, heart, pancreas, spleen, stomach, liver, kidneys, lungs, small and large intestine, muscle, bone and salivary gland were collected, weighed and measured in an automated gamma counter. The tails were also measured for radioactive content, in order to determine the accuracy of the injections. Organ values were calculated as percent of injected activity per g of organ (% IA/g).

A431 tumor xenografts [7] = assay: MicroPET imaging of tumor-bearing mice; assay type: in vivo
Description: as §6
Imaging was performed on a microPET R4 scanner (Concorde Microsystems, Inc.), with a computer-controlled bed and 10 cm transaxial and 8 cm axial field of view (FOV). […] After completion of the study the animals were decapitated under anesthesia and blood, liver, and kidney samples were collected for radioactivity measurements.
Scatter correction, random counts and dead time correction were all incorporated into the reconstruction algorithm. Radiation attenuation in each animal was measured with two rotating rod sources containing ^68 Ge/^68Ga before tracer injection and the images were corrected for radiation attenuation. […] Pharmacokinetic curves, representing the radioactivity concentrations (percentage of injected dose per gram of tissue), versus time after injection were determined accordingly. […]

## ^68Ga-DOTA-EGF: recombinant human epidermal growth factor conjugated to the chelator DOTA (one to three DOTA) and labeled with 68Ga; PET tracer
[1]
  stability in PBS: stable
A431 cells [2]
  internalization rate: rapid process
U343 cells [3]; 30 min after the start of incubation
  radioactivity internalized: More than 50%
U343 cells [3]; acid wash, compared to A431
  internalization rate: faster
A431 cells [4]
  cell-associated radioactivity (retention): more than 70%
U343 cells [5]
  cell-associated radioactivity (retention): more than 70%
A431 tumor xenografts [6]; 0.016 nmol per animal
  radioactivity remaining in the circulation (blood): less than 1 % IA/g
  uptake in the A431 tumour xenograft: 1.51±0.16 % IA/g
A431 tumor xenografts [6]; 0.16 nmol per animal
  radioactivity remaining in the circulation (blood): less than 1 % IA/g
  uptake in the A431 tumour xenograft: 2.69±0.29 % IA/g
A431 tumor xenografts [7]; 0.16 nmol injected, liver, kidneys, tumours, pharmacokinetic curves
  organ distribution by microPET: Prominent uptake was observed in the liver and kidneys; also recorded: rapid distribution
A431 tumor xenografts [7]; 30 min after administration of 2.0 MBq, right and left leg tumors
  tumor visualization by microPET: visible with clear contrast
